According to the supplement of paper PMC12764529:
± gives the half width of the 95% confidence interval.

Assay: folding stability dG unfold from trypsin proteolysis; higher = more stable
Procedure, shortened: (§1)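 Designed mini-proteins with no cysteine and under 80 residues were kept only if AlphaFold2 dimer inter-PAE was above 15. In a PA-tagged cDNA display construct, they were digested with trypsin and chymotrypsin and then sequenced. K50 was inferred by Bayesian fitting of counts, and unfolding free energy was derived per protease or combined against a sequence-predicted unfolded-state K50 and a shared folded-state K50.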

Compared with “SAGGSAGGSAGGNFKITEPVEEYPNPNGNPIKVFTFKNPDDGPEFTFIFMPNGNWQFIPSAGGSAGGSAGGS [r10_1123_TrROS]”, “SAGGSAGGSAGGMLFHFEIKDPNSDKEYEVLVEKPPSGKVLVTILKDNKEEVKVLPLELFSAGGSAGGSAGG [r11_952_JUSTAS]” is lower in “folding stability dG unfold” value: 0.674 ± 0.09 kcal/mol for the first, 0.109 ± 0.17 kcal/mol for the second.

Going from “SAGGSAETITVMIPPNFLKKLKDQGIKIPPGYPWITITVTYNPDGKIKIKVQIQPMPPVSPEDMKKSAGGSA [r15_322_TrROS]” to “SMKIKIKVETNPNGEKKIEIEIELKEEDIEFDEGMTLEERKEKLRELAEELAKKLKEEGKEVKIVEIEVESA [r9_751_TrROS_Hall]”, the “folding stability dG unfold” value rises from 1.44 ± 0.091 kcal/mol to 1.8 ± 0.067 kcal/mol.

Going from “SAGGSAGGSKMRERTITFPNAKITIWYHPDGNVRMEVMNPGNGKPKREIWMKPGDIEEILKKFSAGGSAGGS [r20_129_TrROS]” to “SAGGSAGGIKYRVMVHNPESGRWHRIDDIEIDPPDGRIKIRFPGNGKEITIPPGYPIMISPDMLSAGGSAGG [r6_885_TrROS]”, the “folding stability dG unfold” value falls from 1.62 ± 0.043 kcal/mol to 0.662 ± 0.1 kcal/mol.

Going from “SAGGMYKVKIYFEDTKEEIEIEASAEEVLEAIKNGDLDALKKLFPGAKIVKIEVEKVEPEPEEEEEEESAGG [r13_629_TrROS_Hall]” to “SAGKKTIMIFIPGNMPLDTLKSALRNLPPNVEIHIMYPGQMQTITYDPDDIEIELPPGFPNFYIMIEVPSAG [r5_373_TrROS]”, the “folding stability dG unfold” value falls from 3.33 ± 0.27 kcal/mol to 2.68 ± 0.13 kcal/mol.

First: SAGGSAGGSKKVKIIEIDLKDMSPEEILELIKKEKVDAIIIKSDTPEAKRLAEKLKEAGFKVISAGGSAGGS [r12_610_TrROS_Hall]
Second: SAGGSAGGSAGGSMPIVRIEVKHPDQKHTFFIPPDMPLEDIADELASQYPNVEVKIEPVSAGGSAGGSAGGS [r4_155_TrROS]
The “folding stability dG unfold” value of the first is higher: 1.46 ± 0.043 kcal/mol for the first, 0.355 ± 0.091 kcal/mol for the second.

For “SAGGSAGGSAGLPGAEKARKPKPKVKVKVTLTVLPDGTLVLRVTFEDGTTKTITLKLHPDLLSAGGSAGGSA [r18_192_TrMRF]”, the “folding stability dG unfold” value was 2.37 ± 0.13 kcal/mol.

Assay: folding stability dG unfold from chymotrypsin proteolysis; higher = more stable
Procedure, shortened: as §1

Compared with “SPGMEPIREWELKLPDPDGEDKDLEVEMYRMPEGNYYVDISIPNGKKIPFPMPPDEPITPDDIRNFIKKFSA [r9_616_TrROS]”, “SAGGSPPLPLKITKITDTRYERNPDGQGWVKIEIRLPENGKPITIPVQADSPEQAEYAVKEALKKFSAGGSA [r2_248_TrROS]” is lower in “folding stability dG unfold” value: 0.613 ± 0.23 kcal/mol for the first, -0.424 ± 0.56 kcal/mol for the second.

Compared with “SAAPDEVVTLEFTVPVVTTFEPGAPYVAPARLTVTFHPPDRVEIRLVSPDGRLVATRTVPPSVLLSEVISAG [r14_559_TrMRF]”, “SAGGMKPGETWRIRTPGKTITIEVKDGKITVTVEENGKKKTIVVEAETEEEALEALRSIPGLEIEKVSAGGS [r16_583_TrROS_Hall]” is lower in “folding stability dG unfold” value: 2.03 ± 0.041 kcal/mol for the first, 1.32 ± 0.13 kcal/mol for the second.

Compared with “SAGGMAVPVKVRDPVNGNWKTLDNIESIDEVVEVDPTDGSRSYFVKLKGSGKWYVVDDPEAVEAAKGSAGGS [r8_206_TrMRF]”, “SAGGSAGGSGVSSVRPVALPGGRVLVLEYFSSTGKVRVTTLTVGDGRPARAESVTPVTPESILSAGGSAGGS [r12_961_JUSTAS]” is lower in “folding stability dG unfold” value: 1.08 ± 0.14 kcal/mol for the first, 0.275 ± 0.098 kcal/mol for the second.

Compared with “SAGGSGSTTPETRTEPSPGGTTTEVRTDVHTLPDAETVEITVTRGGRTITLTASPAEAATLRVTPGASAGGS [r8_257_JUSTAS]”, “SAGGSAGGSDPSATISFSFPLPDGSTININITITDEGSGPRIEIDITVTDANNNTAPAKFTIDSAGGSAGGS [r12_33_TrMRF]” is higher in “folding stability dG unfold” value: -0.614 ± 0.62 kcal/mol for the first, 1.4 ± 0.14 kcal/mol for the second.

First: GMTIVPPSSPVTDSSGNYEEYPDSQLYKDSSTGKPIIAFPMSPEELAAGDPAALARREALAKEYGLPEIEPS [r1_438_JUSTAS]
Second: SMKKKVVVKAKIEKIRPDGGKEELEEVFVMEVSPDDPEEIKAAIDEAIEALKKAYPNIKKIEIEEVIIEDSA [r9_436_TrMRF]
The “folding stability dG unfold” value of the first is lower: 0.0509 ± 0.37 kcal/mol for the first, 3.36 ± 0.21 kcal/mol for the second.

First: SAGGSAGGSVKPGQEIEVRVELTYDEETGELTIRREVVNKETGELIAEEEITISLEDLPPELLSAGGSAGGS [r12_145_TrROS_Hall]
Second: SAGGSAKKYIVLAKIKEVKVTKTYKTKNGKKVKVTVKVEIKVEPVKVFKIKKDKNGNWKIEPGEVLSAGGSA [r15_162_TrROS_Hall]
The “folding stability dG unfold” value of the first is lower: 1.51 ± 0.04 kcal/mol for the first, 2.88 ± 0.14 kcal/mol for the second.

Going from “SAGGSAGGSAGGMIEKIEVTKLPDGTYKVTITIPLPNGPVITKTITIPPSETVEDAIAKLSAGGSAGGSAGG [r7_54_JUSTAS]” to “SAGGSAGGSAGLPENVKLVKVTVTITYPNGEKETIPVVAPVPVLEKLLSLPGLPVSVTDESAGGSAGGSAGG [r17_313_TrMRF]”, the “folding stability dG unfold” value falls from 2.194 ± 0.012 kcal/mol to 0.0595 ± 0.071 kcal/mol.

First: SAGGSAGGSAGKLYIIRIKGKKIILSEDEVEKLKKKYPNAEIIPFKSKEDAEKALKKLKESAGGSAGGSAGG [r11_60_TrROS_Hall]
Second: SAGGSAGGSWGTISIRIEFNFMAFDPGLGQFSMFPMEVYISIPIEIPPPPPPPKPKYDNGKPKSAGGSAGGS [r12_140_TrROS]
The “folding stability dG unfold” value of the first is lower: 2.75 ± 0.079 kcal/mol for the first, 4.52 ± 0.21 kcal/mol for the second.

First: SAGGSAGGSAGPIIPPNFEVVDVFETETSYYILVKNPETGRYYVARYDPLTGKIEVFEVSSAGGSAGGSAGG [r11_896_TrMRF]
Second: SMLKEIPITVPEEGEVVTVNIEELAKEQGLDPNNVTVTVTSSGPGKVYKITISSNGITITEVGNVPTALLSA [r9_819_JUSTAS]
The “folding stability dG unfold” value of the first is higher: 4.75 ± 0.065 kcal/mol for the first, 0.684 ± 0.098 kcal/mol for the second.

Going from “SAGARIVPIKINLKWNPDNGQLEVPIEMYVNNHPVEMEARFDPEDPGKIEFEITYPGNGQEIRASIPLPSAG [r14_178_TrROS]” to “SASSVEKEFDSIEDALKAIKEALAKKVPVKMKMDPETVKELKKAGFPDIDVTKEKLPNGNEYYLLELLFSAG [r14_127_JUSTAS]”, the “folding stability dG unfold” value rises from -0.0473 ± 0.31 kcal/mol to 1.2 ± 0.051 kcal/mol.

With “SAGKPEWKLVETIEVTIEVPPGVTVEEIEKKLLEALKEKGIKEVKIEVTYDKENKTITVRVEVLVKKEKSAG [r5_924_TrROS_Hall]” the “folding stability dG unfold” value was 1.92 ± 0.11 kcal/mol.
